Data from the supplement of paper PMC6757056.
± gives the standard deviation of the averaged measurements.

B1: library; a variant is named by its letters at N, in order (parent)
chain: GCUGUCACCGGUGUAUUACCCUAGUGGUCGACCGGUCUGAUGAGUCUNNNNNNAGACGAAACAGC

Tests used:
hypoxanthine [1] = variants of: B1; experiment: normalized RNA/DNA level with ligand (relative to sTRSVctl = 100) (log10 (% of sTRSVctl)); ligand: hypoxanthine (xanthine aptamer); higher = less ribozyme self-cleavage, higher mRNA level; conditions: ligand concentration (+) RNA-Seq: 5 mM, HEK293T, reporter: mCherry (pCS4076), ligand present: yes
Method in brief: (§1)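 Total RNA, extracted with EDTA 72 h after HEK293T cells were transfected with 4 µg per 6-well well of reporter-linked ribozyme switch library plasmids, was reverse-transcribed, amplified, barcoded and sequenced. Ligand, if used, was added 1 h before transfection. RNA level was derived from RNA reads divided by DNA reads and normalized to a spiked-in non-cleaving sequence or to the top sequences. This was multiplied by 100 and log10-transformed, with the top set of 25 sequences and a ≥100 DNA read minimum.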

hypoxanthine [2] = variants of: B1; experiment: normalized RNA/DNA level without ligand (relative to sTRSVctl = 100) (log10 (% of sTRSVctl)); ligand: hypoxanthine (xanthine aptamer); higher = less ribozyme self-cleavage, higher mRNA level; conditions: HEK293T, reporter: mCherry (pCS4076), ligand present: no
Method in brief: as §1

Row | Variant | normalized RNA/DNA level with ligand (log10) (hypoxanthine [1]) | normalized RNA/DNA level without ligand (log10) (hypoxanthine [2])
1 | CAAUGA | 1.92 ± 0.038 | 1.82 ± 0.051
2 | CAAUGC | 1.95 ± 0.047 | 1.89 ± 0.029
3 | GACAUC | 1.97 ± 0.081 | 1.93 ± 0.077
4 | GACAUU | 1.92 ± 0.057 | 1.856 ± 0.0056
5 | GACCUA | 1.935 ± 0.01 | 1.85 ± 0.033
6 | CAAGUA | 1.89 ± 0.054 | 1.779 ± 0.011
7 | CAAGUU | 1.93 ± 0.021 | 1.939 ± 0.0037
8 | CAAGUG | 1.92 ± 0.026 | 1.81 ± 0.042
9 | GACCGA | 1.97 ± 0.032 | 1.8545 ± 0.00036
10 | GACCGC | 1.89 ± 0.029 | 1.7634 ± 0.0011
11 | CAAUCG | 1.98 ± 0.083 | 1.89 ± 0.019
12 | CAAUCA | 1.91 ± 0.069 | 1.77 ± 0.0087
13 | CAAUCU | 2.01 ± 0.059 | 1.85 ± 0.042
14 | GAAUUU | 1.964 ± 0.015 | 1.89 ± 0.022
15 | CAAGCG | 1.94 ± 0.037 | 1.82 ± 0.03
16 | CAAGCU | 1.981 ± 0.0081 | 1.892 ± 0.003
17 | UAAUGC | 1.93 ± 0.023 | 1.823 ± 0.0029
18 | UAAUGU | 1.89 ± 0.045 | 1.599 ± 0.0059
19 | UAAUGA | 1.91 ± 0.024 | 1.653 ± 0.0099
20 | CACAGG | 1.77 ± 0.089 | 1.26 ± 0.06
21 | CACAGC | 1.9491 ± 1.9e-05 | 1.87 ± 0.044
22 | CACAGU | 1.926 ± 0.0077 | 1.844 ± 0.0086
23 | CACAGA | 1.97 ± 0.05 | 1.847 ± 0.015
24 | UAAUUG | 1.92 ± 0.051 | 1.74 ± 0.02

Row | Variant | normalized RNA/DNA level with ligand (log10) (hypoxanthine [1]) | normalized RNA/DNA level without ligand (log10) (hypoxanthine [2])
25 | GAACUG | 1.87 ± 0.05 | 1.519 ± 0.0031
26 | CACCAU | 1.92 ± 0.021 | 1.8 ± 0.024
27 | CACCAA | 1.9 ± 0.032 | 1.79 ± 0.082
28 | CACCAG | 1.97 ± 0.057 | 1.81 ± 0.061
29 | AACAGC | 1.94 ± 0.036 | 1.83 ± 0.05
30 | CACAAU | 1.89 ± 0.053 | 1.78 ± 0.034
31 | CACAAC | 1.93 ± 0.027 | 1.839 ± 0.018
32 | CACAAG | 1.877 ± 0.0098 | 1.676 ± 0.013
33 | CACAAA | 1.8939 ± 0.00066 | 1.76 ± 0.023
34 | CACACG | 1.96 ± 0.032 | 1.861 ± 0.017
35 | CACACC | 1.99 ± 0.035 | 1.929 ± 0.0057
36 | CACACA | 1.9 ± 0.036 | 1.78 ± 0.037
37 | UAACUU | 1.97 ± 0.0029 | 1.899 ± 0.0086
38 | GAAUCC | 1.93 ± 0.067 | 1.898 ± 0.008
39 | GAAUCU | 1.9 ± 0.069 | 1.9 ± 0.044
40 | AACCUA | 1.93 ± 0.028 | 1.84 ± 0.047
41 | UACACG | 1.87 ± 0.035 | 1.63 ± 0.02
42 | UACACC | 1.961 ± 0.0059 | 1.9 ± 0.027
43 | UACACA | 1.899 ± 0.0042 | 1.859 ± 0.012
44 | AACACU | 1.92 ± 0.044 | 1.859 ± 0.018
45 | UAAGGC | 1.945 ± 0.0051 | 1.839 ± 0.0074
46 | AAAGUC | 1.98 ± 0.07 | 1.919 ± 0.0031
47 | CAAGGA | 1.912 ± 0.012 | 1.79 ± 0.044
48 | CAAGGG | 1.72 ± 0.036 | 1.28 ± 0.043

Row | Variant | normalized RNA/DNA level with ligand (log10) (hypoxanthine [1]) | normalized RNA/DNA level without ligand (log10) (hypoxanthine [2])
49 | AACAUC | 1.95 ± 0.022 | 2.02 ± 0.022
50 | AACAUU | 1.91 ± 0.053 | 1.873 ± 0.011
51 | AACAAA | 1.91 ± 0.035 | 1.785 ± 0.017
52 | AACAAC | 1.899 ± 0.015 | 1.8557 ± 0.001
53 | AACCAA | 1.91 ± 0.037 | 1.78 ± 0.072
54 | AACCAU | 1.873 ± 0.0073 | 1.8 ± 0.04
55 | AAAGCC | 1.94 ± 0.04 | 1.817 ± 0.0038
56 | GAAGCC | 1.948 ± 0.016 | 1.85 ± 0.041
57 | GAAGCU | 1.982 ± 0.015 | 1.84 ± 0.031
58 | GACCCA | 1.928 ± 0.0094 | 1.833 ± 0.0075
59 | CACCCU | 1.96 ± 0.034 | 1.91 ± 0.096
60 | CACCCA | 1.958 ± 0.016 | 1.83 ± 0.019
61 | CACCCG | 1.94 ± 0.028 | 1.906 ± 0.01
62 | CACCCC | 1.96 ± 0.025 | 1.8889 ± 0.0018
63 | UACCAU | 1.914 ± 0.0031 | 1.832 ± 0.0068
64 | UACCAC | 1.88 ± 0.045 | 1.793 ± 0.016
65 | GAAGGC | 1.889 ± 0.016 | 1.52 ± 0.044
66 | GAAGGU | 1.91 ± 0.068 | 1.73 ± 0.06
67 | UACAUU | 1.941 ± 0.0099 | 1.855 ± 0.016
68 | UACAUC | 1.979 ± 0.018 | 2 ± 0.03
69 | UACAUA | 1.93 ± 0.038 | 1.86 ± 0.024
70 | GAAUAU | 1.93 ± 0.043 | 1.8073 ± 0.00093
71 | CAAUAG | 1.905 ± 0.0064 | 1.69 ± 0.03
72 | CAAUAU | 1.929 ± 0.016 | 1.811 ± 0.01

Row | Variant | normalized RNA/DNA level with ligand (log10) (hypoxanthine [1]) | normalized RNA/DNA level without ligand (log10) (hypoxanthine [2])
73 | UAAGCA | 1.89 ± 0.031 | 1.8271 ± 0.0017
74 | UAAGCC | 1.9849 ± 0.0019 | 1.876 ± 0.015
75 | UAAGCU | 1.946 ± 0.013 | 1.874 ± 0.011
76 | UACCGC | 1.942 ± 0.0069 | 1.8 ± 0.039
77 | UACAGU | 1.8101 ± 0.00016 | 1.52 ± 0.066
78 | AAAUAC | 1.89 ± 0.026 | 1.77 ± 0.048
79 | AAAUGU | 1.865 ± 0.013 | 1.633 ± 0.013
80 | GACCAU | 1.932 ± 0.0042 | 1.838 ± 0.0066
81 | GACCAC | 1.94 ± 0.022 | 1.835 ± 0.017
82 | UAAGAU | 1.907 ± 0.0056 | 1.72 ± 0.057
83 | CAAGAC | 1.9181 ± 0.0013 | 1.825 ± 0.015
84 | CAAGAU | 1.94 ± 0.048 | 1.76 ± 0.048
85 | GAAGAU | 1.94 ± 0.035 | 1.8 ± 0.075
86 | UACAAA | 1.88 ± 0.063 | 1.755 ± 0.0034
87 | UACAAC | 1.97 ± 0.035 | 1.82 ± 0.081
88 | CACCGC | 2.015 ± 0.0091 | 1.91 ± 0.042
89 | CACCGU | 1.93 ± 0.064 | 1.892 ± 0.011
90 | CACCGG | 1.875 ± 0.0026 | 1.58 ± 0.13
91 | AAAUCU | 1.94 ± 0.089 | 1.9 ± 0.039
92 | AAAUCC | 1.94 ± 0.055 | 1.829 ± 0.0029
93 | UACCCG | 1.93 ± 0.073 | 1.692 ± 0.0093
94 | UACCCA | 1.96 ± 0.057 | 1.89 ± 0.024
95 | UACCCU | 1.9818 ± 0.00074 | 1.916 ± 0.015
96 | AACCCC | 1.97 ± 0.082 | 1.87 ± 0.043

Row | Variant | normalized RNA/DNA level with ligand (log10) (hypoxanthine [1]) | normalized RNA/DNA level without ligand (log10) (hypoxanthine [2])
97 | AACCCU | 1.932 ± 0.0028 | 1.8887 ± 0.0015
98 | CACCUA | 1.921 ± 0.0097 | 1.76 ± 0.11
99 | CACAUG | 1.91 ± 0.075 | 1.857 ± 0.017
100 | CACAUU | 1.909 ± 0.017 | 1.86 ± 0.031
101 | GAAGUA | 1.88 ± 0.05 | 1.741 ± 0.0072
102 | GAAGUC | 1.97 ± 0.022 | 1.87 ± 0.035
103 | CAAUUC | 1.93 ± 0.07 | 1.87 ± 0.058
104 | UAAUAC | 1.929 ± 0.013 | 1.79 ± 0.026
105 | UAAUCC | 1.917 ± 0.015 | 1.84 ± 0.041
106 | UAAUCA | 1.955 ± 0.019 | 1.886 ± 0.0084
107 | GACACA | 1.934 ± 0.012 | 1.8467 ± 2.7e-05
108 | GACACU | 1.912 ± 0.0036 | 1.905 ± 0.008
109 | GACAAC | 1.93 ± 0.072 | 1.73 ± 0.021
110 | GACAAG | 1.83 ± 0.043 | 1.36 ± 0.018
111 | GACAAU | 1.897 ± 0.017 | 1.815 ± 0.013
112 | UAAGUC | 1.932 ± 0.0068 | 1.925 ± 0.016
113 | UAAGUU | 1.97 ± 0.025 | 1.83 ± 0.02
114 | UAAGUA | 1.89 ± 0.041 | 1.8797 ± 0.00095
115 | AAAGAC | 1.9 ± 0.039 | 1.82 ± 0.019
116 | CAACUG | 1.9 ± 0.045 | 1.84 ± 0.022
